The text below walks through data of PMC2950906 (Nature structural & molecular biology, 2010).

The target of data set [1] is EcGspD fragment 1-237 (peri-GspD), N0-N1-N2 subdomains of the secretin from enterotoxigenic E. coli (enterotoxigenic E. coli). Description: SPR. (In general: In SPR one partner is held on a chip, and binding of the other changes the refractive index at the surface.)
Data set [2] concerns the molecule itself. Description: cryo-EM structure.

Usually Kd stands for the equilibrium constant for the complex coming apart. A lower Kd goes with a tighter complex. “B-pentamer of heat-labile enterotoxin (LTB5) (from UniProt P32890 22-124) (complex)” came in with a Kd in data set [1] of 15.5 µM.

B1: V. cholerae GspD secretin (VcGspD), full-length recombinant channel (natural protein)
chain: NEFSASFKGTDIQEFINIVGRNLEKTIIVDPSVRGKVDVRSFDTLNEEQYYSFFLSVLEVYGFAVVEMDNGVLKVIKSKDAKTSAIPVLSGEERANGDEVITQVVAVKNVSVRELSPLLRQLIDNAGAGNVVHYDPANIILITGRAAVVNRLAEIIRRVDQAGDKEIEVVELNNASAAEMVRIVEALNKTTDAQNTPEFLKPKFVADERTNSILISGDPKVRERLKRLIKQLDVEMAAKGNNRVVYLKYAKAEDLVEVLKGVSENLQAEKGTGQPTTSKRNEVMIAAHADTNSLVLTAPQDIMNAMLEVIGQLDIRRAQVLIEALIVEMAEGDGINLGVQWGSLESGSVIQYGNTGASIGNVMIGLEEAKDTTQTKAVYDTNNNFLRNETTTTKGDYTKLASALSSIQGAAVSIAMGDWTALINAVSNDSSSNILSSPSITVMDNGEASFIVGEEVPVITGSTAGSNNDNPFQTVDRKEVGIKLKVVPQINEGNSVQLNIEQEVSNVLGANGAVDVRFAKRQLNTSVMVQDGQMLVLGGLIDERALESESKVPLLGDIPLLGQLFRSTSSQVEKKNLMVFIKPTIIRDGVTADGITQRKYNYIRAEQLFRAEKGLRLLDDASVPVLPKFGDDRRHSPEIQAFIEQMEAKQ
As a reminder, the stoichiometry N is a count of units in the complex or per binding partner. Turning to B1, the “stoichiometry N” value in data set [2] was 12.
